Consider three molecules from patent US20190023770A1 (Genentech, published 2019).

The target in experiment [1] is recombinant hemagglutinin H1 from influenza A virus A/NWS/1933 (influenza A virus A/NWS/1933 (printed …, UniProt P03454 18-528)).
For experiment [2], the target named is recombinant hemagglutinin H3 from influenza A virus A/Hong Kong/8/1968 (influenza A virus A/Hong Kong/8/1968, UniProt Q91MA7 17-530).

B1: monoclonal antibody 36.89 (antibody, V domains shown)
VH: QVQLVQSGAELKRPGASVKVSCKTSGYSFNNYGINWVRQAPGQGLEWMGWISAYTGNTHYAKNFEGRVTLTTDTSTSTAYMEVRSLRSDDSAVYFCARAMIQGVVTLYLRPGDYWGQGTLVTVSS
VL: DIVMTQSPSTLSASVGDRVTITCRASQSIGNWLAWYQQKPGKAPKLLIYKVSTLESGVPSRFSGSGSGTEFTLTINSLQPDDFATYYCQRYTSNSQGFTFGQGTKLEIK
As for B1, the EC50 is more than 200 nM in experiment [1] and 1.32 nM in experiment [2].

B2: monoclonal antibody mAb23 06C2 (antibody, V domains shown)
VH: QVQLQESGPGLVKPSETLSLTCTVSGGLIGTGSYYWGWIRQTPGKGMEWIGSISYSGSTYYHPSLKSRVTISDDTSKNQLFLKLRSVTAADTAQYYCARYNWGIRYFDFWGRGTLVTVSS
VL: DIQLTQSPLSPPVTLGQPASISCRSSQSLLYTDGFTYLSWYHQRPGQSPRRLIYKISNRDSGVPDRFSGSGSGTDFTLKISRVEAEDVGVYYCMQATHWPLTFGEGTKVEIK
With B2, the EC50 in experiment [1] was more than 200 nM; in experiment [2] it was 1.84 nM.

B3: monoclonal antibody mAb9 01F3 (antibody, V domains shown)
VH: QVQLVQSGAEVKQPGASVKVSCKASGYTFNAYYIHWVRQAPGQGLEWMGWINPNFGGTHYARKFQGRVTMTRDASINTAYMELDRLISDDTAVYYCVRWRAAAVIMDQFYKMDVWGQGTLVTVSS
VL: SSELTQPPSASGTPGQRVTISCSGSTSNIGYNPVSWYQQVPGTAPKLLIYSNTERPSGVPDRFSGSKSGTSASLAISGLQSEDEADYYCAAWDDTLNGPVFGGGTKVTVL
As to B3, the EC50 in experiment [1] is more than 200 nM; in experiment [2] it was 8.42 nM.
